Experimental data taken from patent US20250296971A1, “GASTRIC INHIBITORY PEPTIDE RECEPTOR LIGANDS” (priority 2021, published 2025).
*1 amine or outer side, *2 acyl side, *3 side chain or, on linkers, in order; H or OH if unused. Bridges are numbered along the chain shown (N, C = ends). Primed or numbered codes have the meaning given here. [ ]: non-standard residue; d: D form. The star is where a group is joined. APAc″ = 4-amino-1-carboxymethylpiperidine, NC1CCN(CC(=O)*)CC1; DOTA = O=C(O)CN1CCN(CC(=O)O)CCN(CC(=O)*)CCN(CC(=O)O)CC1; Trp(5-Cl) = N[C@@H](Cc1c[nH]c2ccc(Cl)cc12)C(=O)O; Pyridine(2,6-diCH2) = c1cc(C[*:1])nc(C[*:2])c1; 2Lut″ = 2,6-lutidylidene linking two thiols; Phe(3-Cl) = N[C@@H](Cc1cccc(Cl)c1)C(=O)O; Cya = N[C@@H](CS(=O)(=O)O)C(=O)O; Hyp = O=C(O)[C@@H]1C[C@@H](O)CN1; hArg = N=C(N)NCCCC[C@H](N)C(=O)O; Cysteamide = C(CS[*:3])N[*:1]; Thp = NC1(C(=O)O)CCOCC1; Dap = NC[C@H](N)C(=O)O; Aib = CC(C)(N)C(=O)O

Columns and labels:
[1] = target: human Gastric Inhibitory Peptide Receptor (GIPR) (human) (UniProt P48546); assay: FACS competition vs biotinylated GIP-057 on CHO-K1-hGIPR cells; category C: pIC50 6.1-7.0
human Gastric Inhibitory Peptide Receptor (GIPR) (human), sequence (P48546 22-466 limits assumed): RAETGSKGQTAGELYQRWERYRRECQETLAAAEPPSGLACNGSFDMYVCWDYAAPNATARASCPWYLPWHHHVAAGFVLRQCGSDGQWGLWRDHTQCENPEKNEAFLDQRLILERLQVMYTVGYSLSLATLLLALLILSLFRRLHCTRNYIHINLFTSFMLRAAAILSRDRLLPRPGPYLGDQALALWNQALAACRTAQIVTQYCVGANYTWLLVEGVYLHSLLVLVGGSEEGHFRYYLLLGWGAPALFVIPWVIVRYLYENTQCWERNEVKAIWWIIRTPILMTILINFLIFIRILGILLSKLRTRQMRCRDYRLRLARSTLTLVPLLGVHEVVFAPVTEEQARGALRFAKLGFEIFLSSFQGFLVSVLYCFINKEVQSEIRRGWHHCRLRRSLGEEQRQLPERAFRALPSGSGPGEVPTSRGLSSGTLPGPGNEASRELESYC

[2] = target: biotinylated extracellular domain of the human GIP receptor (bioGIPR) (human) (UniProt P48546); assay: SPR single cycle kinetics, bioGIPR captured on chip; category A: t1/2 >15 min
biotinylated extracellular domain of the human GIP receptor (bioGIPR) (human), sequence (P48546 24-138 limits assumed): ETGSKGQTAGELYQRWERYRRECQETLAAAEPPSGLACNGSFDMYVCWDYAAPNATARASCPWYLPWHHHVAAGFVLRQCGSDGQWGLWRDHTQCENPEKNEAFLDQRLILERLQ

[3] = target: biotinylated extracellular domain of the human GIP receptor (bioGIPR) (human) (UniProt P48546); assay: SPR single cycle kinetics, bioGIPR captured on chip; category B: pKD 8.1-9.0
[4] = target: human Gastric Inhibitory Peptide Receptor (GIPR) (human) (UniProt P48546); assay: FACS competition vs biotinylated GIP-057 on CHO-K1-hGIPR cells; category B: pIC50 7.1-8.0
[5] = target: human Gastric Inhibitory Peptide Receptor (GIPR) (human) (UniProt P48546); assay: FACS competition vs biotinylated GIP-057 on CHO-K1-hGIPR cells; category A: pIC50 >8.0
[6] = target: human Gastric Inhibitory Peptide Receptor (GIPR) (human) (UniProt P48546); assay: FACS competition vs biotinylated GIP-057 on CHO-K1-hGIPR cells; category D: pIC50 <=6.0
[7] = target: human Gastric Inhibitory Peptide Receptor (human) (UniProt P48546); assay: FACS competition with GIP-057 on CHO-K1-hGIPR cells; pIC50 category A: >8.0
human Gastric Inhibitory Peptide Receptor (human), sequence (P48546 22-466 limits assumed): as the sequence (P48546 22-466 limits assumed) above

“H-Met-Tyr-Asp-Trp-Trp-Pro-Glu-Leu-[Cys(2MeBn)-Ala-Leu-Ile-Cys]-NH2 (peptide)” gave a pIC50 [1] of 6.1 to 7 pic50.

B1: Ac-Asp-Trp-5Clw-Hyp-Har-leu-[Cys(2Lut)-Thp-Leu-Ile-Cys]-NH2 (peptide)
peptide: Ac-DW[Trp(5-Cl)][Hyp][hArg][dL]C[Thp]LIC-NH2
modifications: linker 7-11 via Pyridine(2,6-diCH2)
SMILES: CC[C@H](C)[C@@H]1NC(=O)[C@H](CC(C)C)NC(=O)C2(CCOCC2)NC(=O)[C@@H](NC(=O)[C@@H](CC(C)C)NC(=O)[C@H](CCCCNC(=N)N)NC(=O)[C@@H]2C[C@@H](O)CN2C(=O)[C@H](Cc2c[nH]c3ccc(Cl)cc23)NC(=O)[C@H](Cc2c[nH]c3ccccc23)NC(=O)[C@H](CC(=O)O)NC(C)=O)CSCc2cccc(n2)CSC[C@@H](C(N)=O)NC1=O
Work on B1 yielded a t1/2 [2] greater than 15 min, a pKD [3] of 8.1 to 9 pkd and a pIC50 [4] of 7.1 to 8 pic50.

B2: Ac-Asp-Trp-5Clw-Hyp-His-leu-[Cys(2Lut)-Thp-Leu-Ile-Cys]-NH2 (peptide)
peptide: Ac-DW[Trp(5-Cl)][Hyp]H[dL]C[Thp]LIC-NH2
modifications: linker 7-11 via Pyridine(2,6-diCH2)
SMILES: CC[C@H](C)[C@@H]1NC(=O)[C@H](CC(C)C)NC(=O)C2(CCOCC2)NC(=O)[C@@H](NC(=O)[C@@H](CC(C)C)NC(=O)[C@H](Cc2c[nH]cn2)NC(=O)[C@@H]2C[C@@H](O)CN2C(=O)[C@H](Cc2c[nH]c3ccc(Cl)cc23)NC(=O)[C@H](Cc2c[nH]c3ccccc23)NC(=O)[C@H](CC(=O)O)NC(C)=O)CSCc2cccc(n2)CSC[C@@H](C(N)=O)NC1=O
B2 gave a t1/2 [2] greater than 15 min, a pIC50 [5] greater than 8 pic50 and a pKD [3] of 8.1 to 9 pkd.

For Ac-DW[Phe(3-Cl)][Hyp]E[dL]C[Thp]LIC-NH2 (linker 7-11 via 2Lut″) [Ac-Asp-Trp-Mcf-Hyp-Glu-leu-[Cys(2Lut)-Thp-Leu-Ile-Cys]-NH2], the pIC50 [1] was 6.1 to 7 pic50.

B3: Ac-Asp-Trp-5Clw-Hyp-Glu-leu-[Cys(2Lut)-Thp-Leu-Glu-Cys]-NH2 (peptide)
peptide: Ac-DW[Trp(5-Cl)][Hyp]E[dL]C[Thp]LEC-NH2
modifications: linker 7-11 via Pyridine(2,6-diCH2)
SMILES: CC(=O)N[C@@H](CC(=O)O)C(=O)N[C@@H](Cc1c[nH]c2ccccc12)C(=O)N[C@@H](Cc1c[nH]c2ccc(Cl)cc12)C(=O)N1C[C@H](O)C[C@H]1C(=O)N[C@@H](CCC(=O)O)C(=O)N[C@H](CC(C)C)C(=O)N[C@H]1CSCc2cccc(n2)CSC[C@@H](C(N)=O)NC(=O)[C@H](CCC(=O)O)NC(=O)[C@H](CC(C)C)NC(=O)C2(CCOCC2)NC1=O
B3 showed a pIC50 [6] of less than 6 pic50.

Work on Ac-DW[Trp(5-Cl)][Hyp]R[dL]C[Thp]LIC-NH2 (linker 7-11 via Pyridine(2,6-diCH2)) [Ac-Asp-Trp-5Clw-Hyp-Arg-leu-[Cys(2Lut)-Thp-Leu-Ile-Cys]-NH2] yielded a t1/2 [2] greater than 15 min, a pIC50 [5] greater than 8 pic50 and a pKD [3] of 8.1 to 9 pkd.

Ac-[Cya]G[Trp(5-Cl)][Hyp]E[dL]C[Aib]LI[Cysteamide] (linker 7-11 via 2Lut″) [Ac-Cya-Gly-5Clw-Hyp-Glu-leu-[Cys(2Lut)-Aib-Leu-Ile-AET]] showed a pIC50 [1] of 6.1 to 7 pic50.

B4: Ac-Asp-Trp-5Clw-Hyp-Glu-leu-[Cys(2Lut)-Thp-Leu-Trp-Cys]-NH2 (peptide)
peptide: Ac-DW[Trp(5-Cl)][Hyp]E[dL]C[Thp]LWC-NH2
modifications: linker 7-11 via Pyridine(2,6-diCH2)
SMILES: CC(=O)N[C@@H](CC(=O)O)C(=O)N[C@@H](Cc1c[nH]c2ccccc12)C(=O)N[C@@H](Cc1c[nH]c2ccc(Cl)cc12)C(=O)N1C[C@H](O)C[C@H]1C(=O)N[C@@H](CCC(=O)O)C(=O)N[C@H](CC(C)C)C(=O)N[C@H]1CSCc2cccc(n2)CSC[C@@H](C(N)=O)NC(=O)[C@H](Cc2c[nH]c3ccccc23)NC(=O)[C@H](CC(C)C)NC(=O)C2(CCOCC2)NC1=O
Molecule B4 has a pIC50 [6] of less than 6 pic50.

B5: DOTA-APAc-Asp-Trp-5Clw-Hyp-Glu-leu-[Dap(2Lut)-Thp-Leu-Ile-AET] (peptide)
peptide: {DOTA-APAc″}-DW[Trp(5-Cl)][Hyp]E[dL][Dap][Thp]LI[Cysteamide]
modifications: linker (positions not given here) via Pyridine(2,6-diCH2); not fully specified (bridges); printed as DOTA-APAc-Asp-Trp-5Clw-Hyp-Glu-leu-[Dap(2Lut)-Thp-Leu-Ile-AET]
Molecule B5 has a t1/2 [2] greater than 15 min, a pKD [3] of 8.1 to 9 pkd and a pIC50 [7] greater than 8 pic50.
